Test results as given in paper PMC2229597.
Like-named read-outs stand apart in the source and are kept apart here.

Key:
[1] = target: homomeric CNG channel composed of olfactory CNGA2 (UniProt Q00195); test: patch-clamp electrophysiology
[2] = target: CNGA2 mutant channel 2-E325K (UniProt Q00195); test: patch-clamp electrophysiology
[3] = target: CNGA2 mutant channel 2-S301F (UniProt Q00195); test: patch-clamp electrophysiology
[4] = target: CNGA2 mutant channel 2-T308S (UniProt Q00195); test: patch-clamp electrophysiology
[5] = target: heteromeric CNG channel containing CNGA2 and CNGA4 (UniProt Q00195); test: patch-clamp electrophysiology
[6] = target: homomeric CNG channel composed of olfactory CNGA2 (UniProt Q00195); test: patch-clamp electrophysiology; remark: listed apart in the source
[7] = target: homomeric CNG channel composed of olfactory CNGA2 (UniProt Q00195); test: patch-clamp electrophysiology; remark: listed apart in the source
[8] = target: CNGA2 mutant channel 2-D316C (UniProt Q00195)
[9] = target: CNGA2 mutant channel 2-Y321C modified with MTSET (UniProt Q00195)
[10] = target: CNGA2 mutant channel 2-Y321C modified with MTSES (UniProt Q00195)
[11] = target: CNGA2 mutant channel 2-Y321R (UniProt Q00195)
[12] = target: CNGA2 mutant channel 2-D316N (UniProt Q00195)
[13] = target: CNGA3 double mutant channel 3-N361D/R366Y (UniProt Q29441)
[14] = target: CNGA3 mutant channel 3-N361D (UniProt Q29441)
[15] = target: CNGA3 mutant channel 3-R366Y (UniProt Q29441)

**Q.** For Pseudechetoxin (natural protein), which Ki [1] is on record?
**A.** 32 nM

**Q.** And the time constant of wash-off (dissociation) [1]?
**A.** 67 s

**Q.** What about the Ki [2] of the same substance?
**A.** 123 nM

**Q.** And the Ki [3]?
**A.** 16 nM

**Q.** What about the Ki [4] of the same substance?
**A.** 16 nM

**Q.** What about the Kd [5] of the same substance?
**A.** 100 nM

**Q.** And the Ki [6]?
**A.** 180 nM

**Q.** What about the Ki [7] of the same substance?
**A.** 24 nM

**Q.** What about the block of current by 500 nM PsTx, outside-out patches from oocytes [8] of the same substance?
**A.** 33%

**Q.** What about the block of current by 500 nM PsTx after modification of the patch with MTSET [9] of the same substance?
**A.** 81%

**Q.** And the block of current by 500 nM PsTx after modification of the patch with MTSES [10]?
**A.** 93%

**Q.** And the inhibition of current by 500 nM PsTx at −60 mV, outside-out patches from oocytes [11]?
**A.** < 5%

**Q.** And the inhibition of current by 500 nM PsTx at −60 mV, outside-out patches from oocytes [12]?
**A.** < 5%

**Q.** And the inhibition of current by 500 nM PsTx, outside-out patches from oocytes (n = 4) [13]?
**A.** 84%

**Q.** What about the inhibition of current by 500 nM PsTx, outside-out patches from oocytes (n = 9) [14] of the same substance?
**A.** 15%

**Q.** What about the inhibition of current by 500 nM PsTx, outside-out patches from oocytes [15] of the same substance?
**A.** 2%
